Results taken from US20150335719A1, “Intravitreal Injection of a Chimeric Phage Endolysin Ply187; Protection from Staphylococcus aureus Endophthalmitis” (priority 2014, published 2015).
“And” between values parts separate entries of the source, which are not always exact repeats. Equal values may be shown once.

Tests used:
[1] = tested on: cultured microglia, Müller glia and RPE; assay: Cytotoxicity analysis in vitro; format: cell-based; conditions: data not shown
[2] = tested on: retinal function in S. aureus-infected eyes; conditions: treatment 6 h post infection, ERG 24 h post treatment
Description: The percentage amplitude of the a- and b-waves retained in S. aureus (SA)-infected, treated and untreated mice were compared to normal uninfected mice and presented as mean±SD (FIG. 7D).
Scotopic ERG was used to determine retinal function following S. aureus infection and chimeric Ply187AN-KSH3b treatment (6 h post infection). The mice (control, infected and infected+treated) were anesthetized 24 h post Ply187AN-KSH3b treatment, maintained at 37° C. using a heat pad, and the pupils were dilated using 1% tropicamide ophthalmic solution. ERGs were recorded following bilateral mydriasis and at least 4 h of dark adaptation. Silver embedded thread eye electrodes (Ocuscience™ LLC, Kansas City, Mo.) were used to record the ERG. Reference needle electrodes (stainless steel subdermal needle electrodes) were placed in anterior scalp and a ground needle electrode was placed in the tail. ERG responses were acquired using an ERG system (Ocuscience™ LLC, Kansas City, Mo.) and analyzed using ERGVIEW 4.380V. Ganzfeld light stimulus was used to present ten 10 ms flashes, with light intensities, increasing from 0.0001 to 100 cd-s/m^2. The ERG a-wave was measured as amplitude between the ERG baseline and the first negative peak, and the ERG b-wave was measured as amplitude between the first negative peak and the first positive peak.

[3] = tested on: neutrophil (PMN) infiltration in retina/vitreous; assay: Mouse S. aureus endophthalmitis: PMN infiltration by flow cytometry (CD45/Ly6G); format: in vivo, C57BL/6 mice; conditions: vs vehicle-treated/control eyes, 24 h post treatment
Description: FIG. 6 depicts infiltration of polymorphonuclear cells (PMNs) in the Ply187AN-KSH3b-treated mouse retina/vitreous cavity. Infected eyes were given intravitreal injections of either EB or chimeric Ply187AN-KSH3b for either 6 or 12 h post infection. Twenty four hour post Ply187AN-KSH3b treatment, the eyes (n=6) were enucleated and the retina/vitreous humor from two eyes were pooled to make single-cell suspensions. The cells were stained with anti-CD45 and anti-Ly6G mAbs. Post-acquisition, the cells were size-gated to differentiate them from debris. The percentage of dually positive PMNs was determined using a CD45-versus-Ly6G dot plot (upper-right quadrant). The data are summarized in a bar graph representative of duplicate experiments. *p<0.05 (student t-test)
Following euthanasia, the retinas were isolated from the eyes as described by Skeie et al. (2011. J. Vis. Exp. 50:2795) and were digested in Accumax (Millipore, Billerica, Mass.) for 10 min at 37° C. Retinas from two eyes were pooled together to obtain a sufficient number of cells. Following digestion, the retinal tissue was passed through a 23-gauge needle & syringe and filtered through a 40 μm cell strainer (BD Falcon, San Jose, Calif.). […] After subsequent washing steps, the cells were acquired on an Accuri C6 flow cytometer (Accuri, Ann Arbor, Mich.), and the data were analyzed using Accuri C6 software (Accuri, Ann Arbor, Mich.).

[4] = tested on: inflammatory cytokines/chemokines in S. aureus-infected eyes; assay: Mouse S. aureus endophthalmitis: inflammatory cytokines/chemokines by ELISA; format: in vivo, C57BL/6 mice
Description: Following treatment with chimeric Ply187AN-KSH3b or EB (EB C), the eyes (n=4 per time point) were enucleated and 10 μg protein lysate was used for the detection of indicated inflammatory cytokines/chemokines by ELISA. *p<0.05, **p<0.005 (student t-test, SA or EB vs. Ply187AN-KSH3b-treated)
To measure the inflammatory cytokines, retinal extracts were processed by homogenization in 250 μl of PBS, followed by centrifugation at 12,000×g for 10 min. PBS-injected mice were used as normal controls (PBS C) and EB-treated mice were used as vehicle controls (EB C). The protein concentration of the retinal lysate was determined by the Micro BCA™ protein assay kit (Thermoscientific, Rockford, Ill.). Equal amounts of protein were used to perform the ELISA, per the manufacturer's instructions (BD biosciences, San Diego, Calif. (IL-6, IL1β & TNFα) and R & D systems, Minneapolis, Minn. (MIP2 & KC).

[5] = tested on: S. aureus RN6390 endophthalmitis; assay: Mouse S. aureus endophthalmitis: clinical score and slit lamp microscopy; format: in vivo, C57BL/6 mice; conditions: for mean clinical score: scored after 24 h, scale 0 to 4
Description: FIGS. 3A-3E show the effects of intravitreal injection of chimeric Ply187AN-KSH3b on the severity of S. aureus endophthalmitis. The eyes (n=10) of C57BL/6 mice were infected with S. aureus strain RN6390 and following either 6 h or 12 h post-infection, Ply187AN-KSH3b or EB (EB C) was administered by intravitreal injection. FIG. 3A depicts individual eyes assigned clinical scores (range 0 to 4; black dots represent an eye) and presented as mean clinical scores (bar with SEM). […] FIG. 3E depicts the total number of dead cells in the retinal sections that were counted and are presented as mean±SD of the TUNEL positive cells. A student's t test (**, p<0.005) was used for the statistical analysis and comparisons were made between the S. aureus (SA) control, SA+EBC, and SA+Ply187AN-KSH3b-treated group.
The eyes of C57BL/6 mice (female, 8 week old) were intravitreally injected with 1 μl of PBS containing 5000 colony forming units (CFU) of S. aureus RN6390 to induce endophthalmitis as described previously (Kumar et al., supra). The chimeric Ply187AN-KSH3b (1 μg/μl) treatment in EB was given after 6 h (group I) or 12 h (group II) post infection. In the control group, the eyes were treated with EB (EB C). The eye infected with S. aureus without any treatment was used as a disease control. Clinical examinations were performed using slit lamp microscopy. The ocular disease was graded, and clinical scores from 0 to 4.0 were assigned using the previously described scale (Whiston et al., supra; Ramadan et al. 2006. Curr. Eye Res. 31:955-965). The clinical score of 4 is considered as 100 percent damage. Based on this, the percent damage and percent retention of eyes were calculated in both Ply187AN-KSH3b-treated vs untreated S. aureus infected eyes. Mice were treated in compliance with the ARVO Statement for the Use of Animals in Ophthalmic and Vision Research and all procedures were approved by the Institutional Animal Care and Use Committee (IACUC) of Wayne State University.
We hypothesized that similar to antibiotics, chimeric Ply187AN-KSH3b would have beneficial effects in protecting the eyes from endophthalmitis. To test this hypothesis, we used a C57BL/6 mouse model of S. aureus endophthalmitis. Chimeric Ply187AN-KSH3b was administrated intravitreally (1 μg/eye in 1 μl volume of EB) 6 h and 12 h after bacterial infection. Eyes without any treatment or eyes injected with EB served as controls. After 24 h, each infected eye was assigned a clinical score.

[6] = 6 h and 12 h treatment, vs vehicle-treated and S. aureus control eyes

B1: Ply187AN-KSH3b: staphylococcal peptidoglycan hydrolase fusion protein: endopeptidase domain of prophage endolysin Ply187 plus SH3b cell wall-binding domain of phage K endolysin LysK (SEQ ID NO:1) (protein)
chain: MALPKTGKPTAKQVVDWAINLIGSGVDVDGYYGRQCWDLPNYIFNRYWNFKTPGNARDMAWYRYPEGFKVFRNTSDFVPKPGDIAVWTGGNYNWNTWGHTGIVVGPSTKSYFYSVDQNWNNSNSYVGSPAAKIKHSYFGVTHFVRPAYKAEPKPTPPLESTPATRPVTGSWKKNQYGTWYKPENATFVNGNQPIVTRIGSPFLNAPVGGNLPAGATIVYDEVCIQAGHIWIGYNAYNGNRVYCPVRTCQGVPPNQIPGVAWGVFKVEHHHHHH
modifications: Chemically Synthesized Fusion Protein
[1]
  retinal cell death in vitro: does not cause retinal cell death
[2]
  ERG a- and b-wave amplitudes: no significant decline in a- or b-wave amplitudes
[2]; vs uninfected
  a- and b-wave amplitudes retained: 90-95%
[3]
  reduction in neutrophil (PMN) infiltration: 40-50% and ~50%
[4]; [6]
  level of IL-1β: dramatically reduced levels
  level of IL-6: dramatically reduced levels
  level of KC (CXCL1): dramatically reduced levels
  level of MIP2 (CXCL2): dramatically reduced levels
  level of TNFα: dramatically reduced levels
[4]; 6 h vs. 12 h treatment
  MIP-2 reduction, 6 h compared with 12 h treatment: greater reduction after 6 h vs. 12 h treatment
[5]; 1 μg/eye intravitreal
  slit lamp microscopy appearance of eyes: clear/transparent corneas and/or anterior chambers
[5]; treatment 6 h post infection, 1 μg/eye intravitreal
  mean clinical score: 0.2
[5]; treatment 12 h post infection, 1 μg/eye intravitreal
  mean clinical score: 0.3
[5]; treatment group, clinical score 4 = 100 percent damage
  retention of eyes (conversion of clinical scores): 90-95%
